From PMC8887127

Assays:
[1] = target: T1, GST-BEND3-BD4 (gel shift construct) (Homo sapiens, UniProt Q5T5X7 546-828); assay: EMSA
T1 sequence: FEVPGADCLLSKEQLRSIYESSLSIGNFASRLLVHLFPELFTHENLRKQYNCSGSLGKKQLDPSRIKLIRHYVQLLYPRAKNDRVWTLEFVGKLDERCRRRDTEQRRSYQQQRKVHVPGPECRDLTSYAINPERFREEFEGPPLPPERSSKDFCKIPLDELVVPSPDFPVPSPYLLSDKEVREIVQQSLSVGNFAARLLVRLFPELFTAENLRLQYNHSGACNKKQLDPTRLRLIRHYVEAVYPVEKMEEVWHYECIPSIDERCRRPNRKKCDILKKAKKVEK

[2] = target: T2, BEND3-BD4 (crystal construct) (Homo sapiens, UniProt Q5T5X7 715-828); assay: X-ray crystallography
T2 sequence: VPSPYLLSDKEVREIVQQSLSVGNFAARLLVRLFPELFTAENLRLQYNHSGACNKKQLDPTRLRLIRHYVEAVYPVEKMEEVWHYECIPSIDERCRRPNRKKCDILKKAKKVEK

B1: wild-type BD4 probe (dsDNA)
DNA 1: CTAAACACCCACGCGCCGTGGGTTGTCTT
DNA 2: AAGACAACCCACGGCGCGTGGGTGTTTAG
[1]
  binding result: binds

B2: 13-mer BD4 target duplex (dsDNA)
DNA 1: GGACCCACGCAGC
DNA 2: GGCTGCGTGGGTC
[2]
  binding result: binds

B3: mutant BD4 probe (dsDNA)
DNA 1: CTAAACCTTTCTACGCTAAAACCTGTCTT
DNA 2: AAGACAGGTTTTAGCGTAGAAAGGTTTAG
[1]
  binding result: no binding
